Laboratory results: patent US20140287989A1 (CENTRE NATIONAL DE LA RECHERCHE SCIENTIFIQUE, published 2014)
Where two headings read alike, the source gives them in different places. Square brackets hold non-standard residues; d marks the D form. Cha = N[C@@H](CC1CCCCC1)C(=O)O

Key:
[1] = target: T1, E. coli β clamp (β subunit of DNA polymerase III, dnaN gene product) (E. coli, UniProt P0A988 1-366); assay: SPR competition: peptide with β ring injected on immobilized P1
T1 construct: Homodimeric ring; N-tagged protein expressed in BL21 E. coli and purified on Ni-NTA and MonoQ; also called β ring; β protein; not shown: N-terminal tag from the pET15b plasmid
T1 sequence (P0A988 whole entry): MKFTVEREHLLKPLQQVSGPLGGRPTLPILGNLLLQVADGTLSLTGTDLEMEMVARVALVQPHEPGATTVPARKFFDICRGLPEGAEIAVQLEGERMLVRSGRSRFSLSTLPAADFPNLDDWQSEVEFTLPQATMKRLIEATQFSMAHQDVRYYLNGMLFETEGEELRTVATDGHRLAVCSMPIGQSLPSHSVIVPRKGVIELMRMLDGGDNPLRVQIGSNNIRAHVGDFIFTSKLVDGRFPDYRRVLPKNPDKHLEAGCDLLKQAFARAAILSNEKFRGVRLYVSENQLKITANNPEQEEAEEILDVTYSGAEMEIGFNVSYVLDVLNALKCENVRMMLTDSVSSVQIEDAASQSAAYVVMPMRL

[2] = target: T1, E. coli β clamp (β subunit of DNA …); assay: as above; remark: listed apart in the source
[3] = target: T1, E. coli β clamp (β subunit of DNA …); assay: SPR competition; ΔG = -RT ln Ki
[4] = target: T1, E. coli β clamp (β subunit of DNA …); assay: SPR competition: peptide with β ring injected on immobilized P1; remark: listed apart in the source

B1: P7, Ac-Gln-Cha-Asp-Leu-Phe-OH (peptide)
peptide: Ac-Q[Cha]DLF-OH
SMILES: CC(=O)N[C@@H](CCC(N)=O)C(=O)N[C@@H](CC1CCCCC1)C(=O)N[C@@H](CC(=O)O)C(=O)N[C@@H](CC(C)C)C(=O)N[C@@H](Cc1ccccc1)C(=O)O
notes: X stands for the non-natural residue; also called Ac Q ChaDLF; AcQChaDLF
For B1, the IC50 [1] was 170 nM, the IC50 [2] was 170 nM and the ΔG [3] was -9.42 kcal/mol. It also gave an IC50 [4] of 170 nM.
